Measurements: the supplement of paper PMC10724198
± gives the standard deviation of the averaged measurements.

test system: Saccharomyces cerevisiae; assay: protein stability index of tFT-peptide fusion (C-terminal peptide) (PSI (0-1 scale)); higher = more stable (slower turnover); conditions: genetic background: wild type; temperature: 30 C
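Note: PSI is a weighted mean of sequencing reads over stability bins, variants kept only with over 10 reads, mCherry proximal and sfGFP distal, peptide attached via GGGS linker.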

First: GVVVVVVGRGLG
Second: PPPPPTPHTPLL
The protein stability index of the first is lower: 0.574 ± 0.018 for the first, 0.672 ± 0.031 for the second.

Compared with SFLHLLCSFVLL, DRSMRPISKRWE is higher in protein stability index: 0.51 ± 0.039 for the first, 0.668 ± 0.037 for the second.

VVSYFFSNDVLH and GLGWGGVGVAGV are within error of each other in protein stability index: 0.752 ± 0.073 for the first, 0.705 ± 0.076 for the second.

First: YWSAQGRVVCVL
Second: FHPTCAPLPCPP
The protein stability index of the first is lower: 0.481 ± 0.07 for the first, 0.663 ± 0.038 for the second.

STGSAISSLSDR and WGRTRGDHGGKK are within error of each other in protein stability index: 0.68 ± 0.11 for the first, 0.686 ± 0.04 for the second.

KEQYFKGSKKPI and RWGGWFCRLPIG are within error of each other in protein stability index: 0.651 ± 0.029 for the first, 0.698 ± 0.05 for the second.

Compared with PLLPSPPLLLPS, SFLFWFFASGWL is lower in protein stability index: 0.819 ± 0.12 for the first, 0.56 ± 0.047 for the second.

YPDNRGRGPRQP and RSRLPTPRLYPP are within error of each other in protein stability index: 0.686 ± 0.082 for the first, 0.708 ± 0.01 for the second.

FGIRGMTSVGSP and GVWRCGVVGLSL are within error of each other in protein stability index: 0.675 ± 0.088 for the first, 0.665 ± 0.038 for the second.

PPPPVLPPPLPP and CLQRPVSAGMVT are within error of each other in protein stability index: 0.7 ± 0.012 for the first, 0.676 ± 0.027 for the second.

PRALLCLLSRPC and RSRSKKKKRKQY are within error of each other in protein stability index: 0.722 ± 0.1 for the first, 0.671 ± 0.042 for the second.

Compared with PPPPPTPPHQPR, VDASQTRYSRGS is lower in protein stability index: 0.79 ± 0.022 for the first, 0.73964 ± 0.00026 for the second.

KKNNNINKHTST and RTHPPADAWYLS are within error of each other in protein stability index: 0.6652 ± 0.0058 for the first, 0.698 ± 0.035 for the second.

First: VLGASFTATYFQ
Second: FSKSRLRNLKLK
The protein stability index of the first is higher: 0.749 ± 0.077 for the first, 0.655 ± 0.016 for the second.

HPSPPPPPPFPT and LFQFFSPCRIPE are within error of each other in protein stability index: 0.748 ± 0.038 for the first, 0.749 ± 0.011 for the second.

RCSCNKNGFSSN and WQIRREMFECGL are within error of each other in protein stability index: 0.607 ± 0.2 for the first, 0.677 ± 0.025 for the second.

PTYDSLPLLDNC and GGGVVGPGGVLK are within error of each other in protein stability index: 0.673 ± 0.014 for the first, 0.705 ± 0.11 for the second.

NEYFYINVRNRV and PRLPLPPPPLPL are within error of each other in protein stability index: 0.6743 ± 0.0017 for the first, 0.683 ± 0.026 for the second.

LDPPHTLPRSAP and SPPQTETGAQRP are within error of each other in protein stability index: 0.70982 ± 0.0002 for the first, 0.666 ± 0.051 for the second.

First: CERHWADRNTSV
Second: FPATSTCTFALY
The protein stability index of the first is higher: 0.7445 ± 0.0064 for the first, 0.665 ± 0.0012 for the second.

SGSVLHEFILVV and LPVPLYPTPALL are within error of each other in protein stability index: 0.543 ± 0.028 for the first, 0.666 ± 0.14 for the second.

SPTPHTLRLLPT and SPVGCYAIIARM are within error of each other in protein stability index: 0.662 ± 0.011 for the first, 0.628 ± 0.042 for the second.

PPLPPSPSVSPR and RRRTGRRNCTET are within error of each other in protein stability index: 0.746 ± 0.021 for the first, 0.712 ± 0.038 for the second.

TDWCPQSCVCSL and LDSSPPCSSNCD are within error of each other in protein stability index: 0.647 ± 0.051 for the first, 0.736 ± 0.058 for the second.

PPHGRKRRGKEP and VGDGGGEVMGEA are within error of each other in protein stability index: 0.776 ± 0.16 for the first, 0.677 ± 0.053 for the second.

RLSSPTRINHPN and WNLESKTEARTR are within error of each other in protein stability index: 0.71 ± 0.04 for the first, 0.704 ± 0.049 for the second.

VSPLSHPPSPAP and GRRRGGAVVEGV are within error of each other in protein stability index: 0.702 ± 0.021 for the first, 0.678 ± 0.01 for the second.

First: PSSPLSPAPPPP
Second: PIWRLVMRCCRS
The protein stability index of the first is higher: 0.659 ± 0.015 for the first, 0.575 ± 0.022 for the second.

First: AVKRNDALGIQF
Second: QGRTWGGCWGRG
The protein stability index of the first is higher: 0.718 ± 0.046 for the first, 0.649 ± 0.012 for the second.

Compared with PPLPLPSPRPPP, EKNKRMEVKAKR is higher in protein stability index: 0.619 ± 0.0092 for the first, 0.67 ± 0.0096 for the second.

SLFHTSLAYSFF and RARAIGVGSGRG are within error of each other in protein stability index: 0.7143 ± 0.0066 for the first, 0.698 ± 0.023 for the second.

NNRLSEDVLCEY and PLTPVSPSPNPV are within error of each other in protein stability index: 0.665 ± 0.078 for the first, 0.648 ± 0.042 for the second.

PPPLLPASFHLP and RYVSCLSIPCLL are within error of each other in protein stability index: 0.629 ± 0.0082 for the first, 0.6373 ± 0.0018 for the second.

First: PPPSRPSHPPPA
Second: LGFISGCGVFGT
The protein stability index of the first is lower: 0.628 ± 0.015 for the first, 0.708 ± 0.026 for the second.

SHSTNNHKLTPR and WGRGEWKRGQEA are within error of each other in protein stability index: 0.677 ± 0.082 for the first, 0.743 ± 0.053 for the second.

LPPCGQIVSLDT and PPRAPLPRPPQP are within error of each other in protein stability index: 0.68 ± 0.022 for the first, 0.656 ± 0.011 for the second.

ALRGESWKSKQG and PPFRRPPPDPQP are within error of each other in protein stability index: 0.664 ± 0.13 for the first, 0.7343 ± 0.0059 for the second.

Going from DPGKWMRCHICE to FSCPALCSCLAV, the protein stability index falls from 0.752 ± 0.035 to 0.604 ± 0.087.

TFLPPTTSPYVL and PPTPRALFPPLP are within error of each other in protein stability index: 0.738 ± 0.052 for the first, 0.745 ± 0.049 for the second.

LGSSGVVGYHLD and NESLKHDCVKDT are within error of each other in protein stability index: 0.71 ± 0.054 for the first, 0.735 ± 0.13 for the second.

In the case of FGGGGLAPSLQS, the protein stability index is reported as 0.602 ± 0.044.
